Measurements published in patent US12624123B2, “Compositions and methods for reducing off-target toxicity of antibody drug conjugates” (The Research Foundation for The State University of New York, priority 2019, dated 2026).
Values joined by “and” are separate entries in the source; they are usually repeats but may differ in a detail not shown here. Equal values may be shown once. “Also recorded” adds a separate entry of the source. Read-outs that look alike come from different tables or passages of the source.

Columns and labels:
SK-BR-3 cells [1] = experiment: MTT cytotoxicity assay in SK-BR-3 cells; type: cell-based
Lovo cells = experiment: MTT cytotoxicity of DM1 and DM4 on Lovo cells; type: cell-based; details: for IC50: DM1 alone, read-out: IC50 of DM1
Procedure: Log-phase Lovo or MOLM-14 cells were seeded in 96-well microtiter plates at a density of 5,000 cells/well, in 100 μL or 70 μL of culture medium, respectively. […] MOLM-14 cells were re-suspended with treatment solutions, where 100 μL of cell-treatment suspension was aliquoted into wells of a 96-well plate for 24 h. Treatment solutions consisted of DM-4 with or without purified anti-drug sdAb. For MOLM-14 cells, 10 μL of MTT solution (5 mg/mL in pH 7.4 1× PBS) was added directly to wells following treatment incubation. For adherent cells, treatment media was aspirated from wells and cells were washed three times with 100 μL of fresh media. Following the final wash, 100 μL of complete media and 25 μL of MTT solution were added to each well. Cells were incubated for 4 h in order to allow cells to reduce MTT to formazan dye. Once MTT was reduced, 100 μL of 10% SDS prepared in 0.01 M HCl was added to each well and incubated overnight to solubilize the formazan crystals. Formazan dye was measured at 570 nm and normalized by cell debris at 690 nm.

MOLM-14 cells = experiment: MTT cytotoxicity of calicheamicin on MOLM-14 cells; type: cell-based, human; details: 24 h, 100 μM peptide or sdAb
Procedure: (§1) Log-phase MOLM-14, Ramos (RA 1), HT-29, LS174T, or NCI-N87 cells were seeded in 96-well microtiter plates at a density of 20,000 cells/well, 20,000 cells/well, 5,000 cells/well, 5,000 cells/well, and 10,000 cells/well, respectively, in 100 μL of culture medium. HT-29, LS174T, and NCI-N87 cells were allowed to adhere for 24 h before cell culture media was aspirated and replaced with 100 μL of fresh media containing a range of treatment for, 48 (LS174T), 96 (NCI-N87), or 120 (HT-29) h. MOLM-14 and Ramos cells were re-suspended with treatment solutions, where 100 μL of cell-treatment suspension was aliquoted into wells of a 96-well plate for 24 h. Treatment solutions consisted of calicheamicin, MMAE, topotecan, or SN38 with or without immunized animal plasma, purified anti-drug antibody, or antibody-drug conjugate (ADC) with or without plasma or anti-drug antibody. For MOLM-14 and Ramos cells, 25 μL of MTT solution (5 mg/mL in pH 7.4 1× PBS) was added directly to wells following treatment incubation. For adherent cells, treatment media was aspirated from wells and cells were washed three times with 100 μL of fresh media. Following the final wash, 100 μL of complete media and 25 μL of MTT solution were added to each well. Cells were incubated for 4 h in order to allow cells to reduce MTT to formazan dye. Once MTT was reduced, 100 μL of 10% SDS prepared in 0.01 M HCl was added to each well and incubated overnight to solubilize the formazan crystals. Formazan dye was measured at 570 nm and normalized by cell debris at 690 nm.
(§2) Fresh media containing a range of treatment were pre-incubated with or without 100 μM purified sdAb at room temperature for 30 minutes. Log-phase MOLM-14 cells were seeded in 96-well microtiter plates at a density of 20,000 cells/well, and were re-suspended with treatment solutions, where 100 μL of cell-treatment suspension was aliquoted into wells of a 96-well plate for 24 h. 25 μL of MTT solution (5 mg/mL in pH 7.4 1× PBS) was added directly to wells following treatment incubation. […] Formazan dye was measured at 570 nm and normalized by cell debris at 690 nm.

NCI-N87 cells = experiment: Cell cytotoxicity with exatecan and trastuzumab deruxtecan, NCI-N87 cells; type: cell-based; details: for IC50: free exatecan alone
Procedure: Cells were incubated with the drug mixture for 24 hours at 37° C., 5% CO2. After incubation drug containing cell culture media was aspirated and 250 μL of fresh RPMI was added, allowing cells to grow for another 4 days. Then cell culture media was aspirated and 125 μL of RPMI with a final concentration of 1 mg/ml MTT was added followed by a four-hour incubation. MTT crystals were dissolved in 0.01 M HCL/10% SDS overnight at 37° C. followed by absorbance reading at 570 nm (corrected to 640 nm).

Ramos cells = experiment: MTT cytotoxicity of calicheamicin on Ramos cells; type: cell-based; details: 24 h, calicheamicin alone
Procedure: as §1, §2

SK-BR-3 cells [2] = experiment: MTT cytotoxicity assay in SK-BR-3 cells; type: cell-based; details: 24 h exposure, 10 μM sdAb
Procedure: Positive clone sdAbs' DNA in pComb3XSS plasmid was isolated and transferred into pET-22b expression vector in SHuffle cells for expression. SK-BR-3 cells were used to test the anti-DM4 sdAbs effect on DM4 cytotoxicity. Briefly, 2,500 cells/well were seeded into a 96-well plate and allowed to adhere for 24 h before cell culture media was aspirated and replaced with 100 μL of fresh media solution containing with or without 10 μM of anti-DM4 sdAb and a range of DM4 concentration for another 24 h exposure period. The cells were then washed 2 times before replacing with fresh media and allowed to grow for additional 72 h.

[3] = Competitive ELISA with free DM4; type: binding; details: for Kd: free DM4, read-out: Estimated KD; for IC50: read-out: Estimated binding affinity IC50 to free DM4
Procedure: To determine the binding affinity of the anti-DM4 sdAbs to DM4-conjugates and free DM4, indirect ELISA and competitive ELISA were employed. Briefly, ELISA plate were coated overnight with 100 μL of neutravidin at different concentration ranging from 1 μg/mL to 10 μg/mL. After blocking with 200 μL of 2% skimmed milk-PBST for 1 h, 100 μL of 1 μM biotin-DM4 solution was added into each well and incubated for 30 min, then 100 μL of purified anti-DM4 sdAb solution at concentration ranging from 0.1 nM to 1 μM was added and incubated for 1 h. Bound sdAbs were detected with HRP conjugated anti-His antibody and TMB substrate. After the linear range of binding was determined via the indirect ELISA, a concentration of anti-DM4 sdAb near the IC50 of binding was selected to proceed with competitive ELISA. For the competitive ELISA, anti-DM4 sdAb concentration was held constant as determined from the indirect ELISA and incubated with increasing concentration of DM4 ranging from 0.1 nM to 1 μM.

[4] = SPR dissociation screening on DM1-Biotin chip; type: binding; details: 20 min dissociation phase
Procedure: Preliminary screening of DM1/4 binders were performed using a neutravidin SPR chip with DM1-Biotin on the left channel. Phagemid purified sdAbs were flowed over the SPR chip for 2 minutes at a flow rate of 25 ul/min. After binding, sdAb was dissociated for 20 minutes. Observed sensorgrams were fit to an individual dissociation rate constant for each construct. Equilibrium and kinetic binding of 3A2 was assessed using a CM5 SPR chip with TDM1 immobilized on the left channel. […] Rate constants for 3A2-TDM1 association and dissociation were obtained through fitting of the observed sensorgrams for the 1.25, 2.5, 5, 7.5 and 10 nM injections to a 1:1 Langmuir binding model.

## COc1cc2cc(c1Cl)N(C)C(=O)C[C@H](OC(=O)[C@H](C)N(C)C(=O)CCS)[C@]1(C)O[C@H]1[C@H](C)[C@@H]1C[C@@](O)(NC(=O)O1)[C@H](OC)/C=C/C=C(\C)C2 [DM1]
SK-BR-3 cells [1]; 24 h exposure, DM1 alone, read-out: IC50 of DM1
  IC50: 4.43 nM
Lovo cells; 6 h exposure
  IC50: 30.5 nM and 22.1 nM
Lovo cells; 24 h exposure
  IC50: 3.07 nM and 2.12 nM

## anti-calicheamicin peptide HSWHWPSWWAGGGGGS (SEQ ID NO:1) [C2]
MOLM-14 cells
  fold change of calicheamicin IC50: 5.69 fold

## T-DM1 [reference compound]
SK-BR-3 cells [1]; 24 h, without DMFH1, read-out: IC50 of T-DM1
  IC50: 0.0128 nM

## CC[C@@]1(O)C(=O)OCc2c1cc1n(c2=O)Cc2c-1nc1cc(F)c(C)c3c1c2[C@@H](N)CC3 [exatecan, reference compound]
NCI-N87 cells; Homo sapiens, NCI-N87, NCI-N87 cells
  IC50: 1.5 nM
NCI-N87 cells; NCI-N87 cells
  IC50: 2.1 nM

## calicheamicin
Ramos cells
  IC50: 2.5 nM and 2.98 nM
Ramos cells; listed as Calicheamicin
  IC50: 2.5 ± 0.224 nM

## anti-calicheamicin peptide SWWFPQWMAQYPGGGS (SEQ ID NO:2) [C9]
MOLM-14 cells
  fold change of calicheamicin IC50: 3.56 fold

B1: DF3A4 (protein)
VHH: QVQLQESGGGLVQPGGSLRLSCAASGSIFGISYMGWYRQAPGKQREPVALITSGGSTYYADSVKGRVTISRDNAKKTVYLQMNSLRPEDTSTYYCAAGFYRSDSPNRYDYWGQGTQVTVSS
modifications: DF3A4
Lovo cells; 6 h exposure
  fold shift of DM4 IC50: 5.88 fold
Lovo cells; 6 h exposure, 10 μM sdAb
  fold shift of DM1 IC50: 14.8 fold

B2: DMFH2 (protein)
VHH: QVQLQESGGGLVQPGGSLRLSCAASGSTFGISYMGWYRQAPGKQREPVAMITSGGSTYYVDSVKGRVTISRDNAKKTVYLQMNSLRPEDTSTYYCAAGFYRSDSPNRYDYWGQGTQVTVSS
modifications: DMFH2
SK-BR-3 cells [2]
  Fold shifted (DM4 IC50): 150 fold and 149.4 fold
[3]
  Kd: 25 nM and 25.2 nM
  IC50: 25 nM

B3: DMOH9: affinity matured Anti-DM1/DM4 sdAb, SEQ ID NO:32 (protein)
VHH: QVQLQESGGGLVQPGGSLRLSCAASGSIFGITYMGWYRQAPGKQREPVAMITSGGSTYYADSVKGRVTISRDNAKKTVYLQMNSLRPEDTSTYYCAAGYYRSDSPNRYDYWGQGTQVTVSS
modifications: DMOH9
SK-BR-3 cells [2]
  Fold shifted (DM4 IC50): 210 fold and 209.5 fold
[3]
  Kd: 20 nM and 19.9 nM
  IC50: 20 nM

B4: DMFF2 (protein)
VHH: QVQLQESGGGLVQPGGSLRLSCAASGSIFGISYMGWYRQAPGKQREPVALITSGGSTYYVDSVKGRVTISRDNAKKTVYLQMNSLRPEDTSTYYCAAGYYRSDSPNRYDYWGQGTQVTVSS
modifications: DMFF2
SK-BR-3 cells [2]
  Fold shifted (DM4 IC50): 95 fold and 93.65 fold
[3]
  Kd: 57 nM and 56.6 nM
  IC50: 57 nM

B5: DMOF8 (protein)
VHH: QVQLQESGGGLVQPGGSLRLSCAASGSIFGISYMGWYRQAPGKQREPVAMITSSGSTYYADSVRGRVTISRANAKKTVYLQMNSLRPEDTSTYYCAAGYYRSDSPNRYDYWGQGTQVTVSS
modifications: DMOF8
SK-BR-3 cells [2]
  Fold shifted (DM4 IC50): 104 fold and 104.1 fold
[3]
  Kd: 26 nM and 26.2 nM
  IC50: 26 nM

B6: DMFB8 (protein)
VHH: QVQLQESGGGLVQPGGSLRLSCAASGSIFGISYMGWYRQAPGKQREPVAMITSGGSTYYADSVKGRVTISRDNAKKTVYLQMYSLRPEDTSTYYCAAGYYRSDSPNRYDYWGQGTQVTVSS
modifications: DMFB8
SK-BR-3 cells [2]
  Fold shifted (DM4 IC50): 140 fold and 140.2 fold

B7: DF4B12 (protein)
VHH: EVQLVESGGGLVQPGGSLRLSCAASGSIFGISYMGWYRQAPGKQREPVALITSGGDTAYGDSVKGRFTISRDNAKNTVYLQMNSLTPEDTSTFYCAAGFYRSDSPNRYDYWGQGTQVTVSS
modifications: DF4B12
Lovo cells; 6 h exposure
  fold shift of DM4 IC50: 15.5 fold
Lovo cells; 6 h exposure, 10 μM sdAb
  fold shift of DM1 IC50: 53 fold
Lovo cells; 24 h exposure, 10 μM sdAb
  fold shift of DM4 IC50: 8.66 fold and 9.4 fold

B8: 8C2 Fab: Fab of 8C2 by papain digestion; heavy SEQ ID NO:4, light SEQ ID NO:5 (antibody)
heavy: MKCSWVIFFLMAVVTGVNSEEVQLQQSGAELVKPGASVKLSCTASGFNIKDTYIHWVKQRPEQGLEWIGMIDLANDNTKYDPKFQGKATIITDTSSNKAYLQVSSLTSEDTAVYYCATWGAIITLGGWGQGTLVTVSAAKTTPPSVYPLAPGSAAQTNSMVTLGCLVKGYFPEPVTVTWNSGSLSSGVHTFPAVLQSDLYTLSSSVTVPSSTWPSETVTCNVAN
light: MSVLTQVLALLLLWLTGARCDIQMTQSPASLSASVGETVTITCRASGNIHNSLAWYQQIKGRSPQLLVYNAKTLADGVPSRFSGSGSGTQYSLKINSLHPEDFGSYYCQHFWSTPFTFGSGTKLEIKRADAAPTVSIFPPSSEQLTSGGASVVCFLNNFYPKDINVKWKIDGSEERQNGVLNSWTDQDSKDSTYSMSSTLTLTKD
modifications: 8C2 Fab heavy chain; 8C2 Fab light chain
NCI-N87 cells; NCI-N87 cells, ADC with 8C2 mAb or Fab
  effect on trastuzumab deruxtecan cytotoxicity: did not prevent cell death; also recorded: does not significantly alter

B9: DT3B3 (protein)
VHH: EVQLVESGGGLVQAGGSLRLSCALSGGTLRSYTMGWIRQAPGKEREFVAGNRWSGGRTYYADSVKGRFTISGDNAENTVYLQMNSLKPEDTAVYYCTADVTEYGEDSSAYWGRGTQVTVSS
modifications: DT3B3
[4]
  dissociation kinetics: longest dissociation rates; also recorded: longer dissociation rates
